The results in this text go back to patent US20250092426, “CAS ENDONUCLEASES AND RELATED METHODS” (Flagship Pioneering Innovations VII, LLC, published 2025).

The target of the series is T1, CasEnd-14 (synthetic construct).
T1 chain: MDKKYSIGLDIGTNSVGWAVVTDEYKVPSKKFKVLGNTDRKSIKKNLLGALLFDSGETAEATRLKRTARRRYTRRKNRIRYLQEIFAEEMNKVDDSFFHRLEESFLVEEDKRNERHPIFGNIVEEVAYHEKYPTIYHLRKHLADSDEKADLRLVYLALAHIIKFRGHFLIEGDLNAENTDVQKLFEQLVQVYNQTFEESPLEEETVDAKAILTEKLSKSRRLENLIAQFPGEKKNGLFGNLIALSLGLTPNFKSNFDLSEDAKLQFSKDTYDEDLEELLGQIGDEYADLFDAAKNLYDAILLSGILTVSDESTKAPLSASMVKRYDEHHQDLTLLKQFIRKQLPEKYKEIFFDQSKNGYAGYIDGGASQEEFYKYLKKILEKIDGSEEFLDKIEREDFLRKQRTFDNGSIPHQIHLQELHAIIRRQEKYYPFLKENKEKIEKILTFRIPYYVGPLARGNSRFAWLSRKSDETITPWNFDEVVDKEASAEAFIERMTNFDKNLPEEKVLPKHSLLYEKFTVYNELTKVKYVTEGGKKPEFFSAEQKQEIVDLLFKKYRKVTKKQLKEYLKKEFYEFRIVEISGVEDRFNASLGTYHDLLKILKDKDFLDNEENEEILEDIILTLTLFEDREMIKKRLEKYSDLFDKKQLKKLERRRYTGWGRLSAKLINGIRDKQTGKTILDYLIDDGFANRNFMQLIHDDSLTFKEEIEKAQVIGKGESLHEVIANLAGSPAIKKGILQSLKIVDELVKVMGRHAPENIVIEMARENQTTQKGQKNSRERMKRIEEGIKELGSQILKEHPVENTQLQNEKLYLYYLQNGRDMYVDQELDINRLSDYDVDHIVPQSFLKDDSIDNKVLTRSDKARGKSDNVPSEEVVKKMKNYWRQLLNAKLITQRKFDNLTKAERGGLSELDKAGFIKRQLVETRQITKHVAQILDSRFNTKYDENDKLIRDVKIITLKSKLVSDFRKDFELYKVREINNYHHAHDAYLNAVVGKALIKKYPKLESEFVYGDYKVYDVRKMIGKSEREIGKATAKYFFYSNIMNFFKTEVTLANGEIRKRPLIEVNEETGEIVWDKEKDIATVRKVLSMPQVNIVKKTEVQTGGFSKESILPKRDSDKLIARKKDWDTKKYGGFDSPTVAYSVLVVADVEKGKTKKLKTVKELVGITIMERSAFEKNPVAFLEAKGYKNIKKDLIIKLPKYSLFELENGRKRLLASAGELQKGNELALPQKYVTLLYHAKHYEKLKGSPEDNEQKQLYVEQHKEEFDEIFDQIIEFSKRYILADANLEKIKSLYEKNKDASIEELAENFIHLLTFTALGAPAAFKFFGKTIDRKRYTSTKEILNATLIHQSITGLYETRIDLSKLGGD
Description: cell_activity; +++; HEK293T; PAM not stated. Put shortly: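 Editing activity was scored as the fraction of GFP+ cells on day 4 by flow cytometry. BFP-expressing HEK293T cells (250,000) received by nucleofection 200 ng plasmid for the RT-Cas fusion protein and 200 ng template RNA plasmid designed to convert BFP to GFP.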

B1: BFP-to-GFP template RNA ; BFP reporter protospacer (ssRNA ; dsDNA)
RNA: GCCGAAGCACUGCACGCCGUGUUUUAGAGCUAGAAAUAGCAAGUUAAAAUAAGGCUAGUCCGUUAUCAACUUGAAAAAGUGGCACCGAGUCGGUGCACCCUGACGUACGGCGUGCAGUGCUU
DNA 1: GCCGAAGCACTGCACGCCGT
DNA 2: ACGGCGTGCAGTGCTTCGGC
With B1, the activity was ≥ 100 % of reference.
